Laboratory results as given in US20250270302A1.

Tests used:
[1] = target: human Gremlin-1 (huGREM1), recombinant protein (human) (UniProt O60565); test: cell-based or functional assay
[2] = target: human Gremlin-1 (huGREM1), recombinant protein (human) (UniProt O60565); test: binding ELISA on huGREM1, hybridoma clone selection

Chain of UniProt O60565 (O60565 25-184 limits assumed): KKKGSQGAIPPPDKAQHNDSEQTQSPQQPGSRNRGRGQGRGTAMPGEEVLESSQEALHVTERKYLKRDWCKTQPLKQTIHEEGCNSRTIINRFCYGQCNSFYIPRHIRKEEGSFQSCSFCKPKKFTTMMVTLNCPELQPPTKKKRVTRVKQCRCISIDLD

B1: anti-Gremlin-1 antibody 14-D10-2 (antibody, from a related filing, IgG2b, V domains shown)
VH: EVQLQQSGPELVKPGASVKISCKASGYSFTGYYMHWVKQSHGNILDWIGYFFPYNGFSNCNQKFKGKATLTVDKSSSTAYMELRSLTSEDSAVYYCARGGLGRGYFDVWGTGTTVTVSS
VL: DIQMTQSPSYLSVSLGGRVTITCKASDHINNWLAWYQQKPGNAPRLLISGATSLETGVPSRFSGSGSGKDYTLSITSLQTEDVATYYCQQYWSSPRTFGGGTKLEIK
[1]
  EC50, in vitro Gremlin-1 neutralization assay (ALP activity in ATDC5 cells): 26.4 nM
[2]
  OD 492 nm: > 0.9 OD 492 nm
